Test results as given in paper PMC4713166, “Chicken scFvs with an Artificial Cysteine for Site-Directed Conjugation” (PLoS ONE, 2016).

Columns and labels:
[1] = target: T1, recombinant human Fc-tagged PSA (Homo sapiens, UniProt P07288); test: ELISA; enzyme immunoassay: recombinant human Fc-tagged PSA coated on the plate (0.1 M NaHCO3 pH 8.6, overnight at 4 C), blocked with 3% BSA in PBS; 250 ng cotinine-conjugated scFv-C kappa fusion protein in 50 ul, 1 h at 37 C; HRP-conjugated anti-cotinine IgG1 or HRP-conjugated anti-human C kappa antibody, TMB, optical density at 450 nm; conditions: both partners purified
T1 construct: prostate-specific antigen (PSA), human; also called prostate-specific antigen; recombinant Fc-tagged PSA
T1 sequence (P07288 18-261): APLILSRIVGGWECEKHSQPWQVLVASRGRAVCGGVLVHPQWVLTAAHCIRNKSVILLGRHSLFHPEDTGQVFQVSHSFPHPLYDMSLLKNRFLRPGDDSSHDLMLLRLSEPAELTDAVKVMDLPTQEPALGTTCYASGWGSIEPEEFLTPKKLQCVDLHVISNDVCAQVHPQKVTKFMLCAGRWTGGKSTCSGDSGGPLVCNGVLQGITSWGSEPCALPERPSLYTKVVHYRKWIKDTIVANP

[2] = target: T1, recombinant human Fc-tagged PSA; test: ELISA; phage enzyme immunoassay: recombinant human Fc-tagged PSA coated on the microtiter plate (5 ug/ml in PBS, overnight at 4 C), blocked with 3% BSA in PBS; scFv-displaying phages in culture supernatant; HRP-conjugated anti-M13 antibody, ABTS, optical density at 405 nm; conditions: one partner purified

Binder	binding result [1]	binding result [2]
charge-variant artificial H13 cysteine-mutant scFv RCK, scFv-C kappa fusion protein cotinine conjugate (scFv, V domains shown, VL as in m2; VH as in m6 (GenBank KP764767 with cysteine at Kabat H13), the flanking residues of H13 changed from QCP to RCK; source: HEK293F, transfected, purified (KappaSelect); reduced with TCEP-HCl, treated with dehydroascorbic acid, conjugated with GMBS-coupled cotinine) VH: AVTLDESGGGLRCKGGALSLVCKASGFTFSSYDMGWVRQAPGKGLEWVAGIDDDGSYPNYGPAVKGRATISRDNGQSTVRLQLNNLRAEDTGTYFCAKGIESDSDGYMTAEEIDAWGHGTEVIVSS VL: ALTQPSSVSANLGGTVKITCSGGYSYYGWYQQKSPGSAPVTVIYESTKRPSNIPSRFSGSTSGSTGTLTITGVQADDAAVYYCGSWDSSSVGIFGAGTTLTVL	binds	
artificial cysteine-mutant scFv L7, scFv-pIII fusion protein displayed on phage (scFv, V domains shown, VH as in m2; Order VL-linker-VH worked out as for m2) VH: AVTLDESGGGLQTPGGALSLVCKASGFTFSSYDMGWVRQAPGKGLEWVAGIDDDGSYPNYGPAVKGRATISRDNGQSTVRLQLNNLRAEDTGTYFCAKGIESDSDGYMTAEEIDAWGHGTEVIVSS VL: ALTQCSSVSANLGGTVKITCSGGYSYYGWYQQKSPGSAPVTVIYESTKRPSNIPSRFSGSTSGSTGTLTITGVQADDAAVYYCGSWDSSSVGIFGAGTTLTVL		binds
artificial cysteine-mutant scFv H13 (QCP), scFv-pIII fusion protein displayed on phage (scFv, V domains shown, VL as in m2; Order VL-linker-VH worked out as for m2) VH: AVTLDESGGGLQCPGGALSLVCKASGFTFSSYDMGWVRQAPGKGLEWVAGIDDDGSYPNYGPAVKGRATISRDNGQSTVRLQLNNLRAEDTGTYFCAKGIESDSDGYMTAEEIDAWGHGTEVIVSS VL: ALTQPSSVSANLGGTVKITCSGGYSYYGWYQQKSPGSAPVTVIYESTKRPSNIPSRFSGSTSGSTGTLTITGVQADDAAVYYCGSWDSSSVGIFGAGTTLTVL		binds
artificial cysteine-mutant scFv L5, scFv-C kappa fusion protein cotinine conjugate (scFv, V domains shown, VL as in m3: GenBank KP764766 with Kabat residue L5 replaced with cysteine; VH as in m2; that it was a cotinine conjugate of the scFv-C kappa protein is inferred from that detection; also called L5 mutant scFv; source: HEK293F, transfected, purified (KappaSelect); conjugated with GMBS-coupled cotinine) VH: AVTLDESGGGLQTPGGALSLVCKASGFTFSSYDMGWVRQAPGKGLEWVAGIDDDGSYPNYGPAVKGRATISRDNGQSTVRLQLNNLRAEDTGTYFCAKGIESDSDGYMTAEEIDAWGHGTEVIVSS VL: ALCQPSSVSANLGGTVKITCSGGYSYYGWYQQKSPGSAPVTVIYESTKRPSNIPSRFSGSTSGSTGTLTITGVQADDAAVYYCGSWDSSSVGIFGAGTTLTVL	binds	
artificial cysteine-mutant scFv H16, scFv-pIII fusion protein displayed on phage (scFv, V domains shown, VL as in m2; Order VL-linker-VH worked out as for m2) VH: AVTLDESGGGLQTPGCALSLVCKASGFTFSSYDMGWVRQAPGKGLEWVAGIDDDGSYPNYGPAVKGRATISRDNGQSTVRLQLNNLRAEDTGTYFCAKGIESDSDGYMTAEEIDAWGHGTEVIVSS VL: ALTQPSSVSANLGGTVKITCSGGYSYYGWYQQKSPGSAPVTVIYESTKRPSNIPSRFSGSTSGSTGTLTITGVQADDAAVYYCGSWDSSSVGIFGAGTTLTVL		binds
charge-variant artificial H13 cysteine-mutant scFv ECD, scFv-C kappa fusion protein cotinine conjugate (scFv, V domains shown, VL as in m2; VH as in m6 (GenBank KP764767 with cysteine at Kabat H13), the flanking residues of H13 changed from QCP to ECD; source: HEK293F, transfected, purified (KappaSelect); reduced with TCEP-HCl, treated with dehydroascorbic acid, conjugated with GMBS-coupled cotinine) VH: AVTLDESGGGLECDGGALSLVCKASGFTFSSYDMGWVRQAPGKGLEWVAGIDDDGSYPNYGPAVKGRATISRDNGQSTVRLQLNNLRAEDTGTYFCAKGIESDSDGYMTAEEIDAWGHGTEVIVSS VL: ALTQPSSVSANLGGTVKITCSGGYSYYGWYQQKSPGSAPVTVIYESTKRPSNIPSRFSGSTSGSTGTLTITGVQADDAAVYYCGSWDSSSVGIFGAGTTLTVL	binds	
artificial cysteine-mutant scFv L5, scFv-pIII fusion protein displayed on phage (scFv, V domains shown, VH as in m2; Order VL-linker-VH worked out as for m2) VH: AVTLDESGGGLQTPGGALSLVCKASGFTFSSYDMGWVRQAPGKGLEWVAGIDDDGSYPNYGPAVKGRATISRDNGQSTVRLQLNNLRAEDTGTYFCAKGIESDSDGYMTAEEIDAWGHGTEVIVSS VL: ALCQPSSVSANLGGTVKITCSGGYSYYGWYQQKSPGSAPVTVIYESTKRPSNIPSRFSGSTSGSTGTLTITGVQADDAAVYYCGSWDSSSVGIFGAGTTLTVL		binds
artificial cysteine-mutant scFv L6, scFv-pIII fusion protein displayed on phage (scFv, V domains shown, VH as in m2; Order VL-linker-VH worked out as for m2) VH: AVTLDESGGGLQTPGGALSLVCKASGFTFSSYDMGWVRQAPGKGLEWVAGIDDDGSYPNYGPAVKGRATISRDNGQSTVRLQLNNLRAEDTGTYFCAKGIESDSDGYMTAEEIDAWGHGTEVIVSS VL: ALTCPSSVSANLGGTVKITCSGGYSYYGWYQQKSPGSAPVTVIYESTKRPSNIPSRFSGSTSGSTGTLTITGVQADDAAVYYCGSWDSSSVGIFGAGTTLTVL		binds
charge-variant artificial H13 cysteine-mutant scFv ECE, scFv-C kappa fusion protein cotinine conjugate (scFv, V domains shown, VL as in m2; VH as in m6 (GenBank KP764767 with cysteine at Kabat H13), the flanking residues of H13 changed from QCP to ECE; source: HEK293F, transfected, purified (KappaSelect); reduced with TCEP-HCl, treated with dehydroascorbic acid, conjugated with GMBS-coupled cotinine) VH: AVTLDESGGGLECEGGALSLVCKASGFTFSSYDMGWVRQAPGKGLEWVAGIDDDGSYPNYGPAVKGRATISRDNGQSTVRLQLNNLRAEDTGTYFCAKGIESDSDGYMTAEEIDAWGHGTEVIVSS VL: ALTQPSSVSANLGGTVKITCSGGYSYYGWYQQKSPGSAPVTVIYESTKRPSNIPSRFSGSTSGSTGTLTITGVQADDAAVYYCGSWDSSSVGIFGAGTTLTVL	binds	
charge-variant artificial H13 cysteine-mutant scFv DCE, scFv-C kappa fusion protein cotinine conjugate (scFv, V domains shown, VL as in m2; VH as in m6 (GenBank KP764767 with cysteine at Kabat H13), the flanking residues of H13 changed from QCP to DCE; also called DEC (as printed once); source: HEK293F, transfected, purified (KappaSelect); reduced with TCEP-HCl, treated with dehydroascorbic acid, conjugated with GMBS-coupled cotinine) VH: AVTLDESGGGLDCEGGALSLVCKASGFTFSSYDMGWVRQAPGKGLEWVAGIDDDGSYPNYGPAVKGRATISRDNGQSTVRLQLNNLRAEDTGTYFCAKGIESDSDGYMTAEEIDAWGHGTEVIVSS VL: ALTQPSSVSANLGGTVKITCSGGYSYYGWYQQKSPGSAPVTVIYESTKRPSNIPSRFSGSTSGSTGTLTITGVQADDAAVYYCGSWDSSSVGIFGAGTTLTVL	binds	
